Results from patent US20240279357A1 (THERINI BIO, published 2024).

T1: P2 peptide comprising SEQ ID NO: 31 (human fibrin γ377-395) (human)
T1 construct: Bought (CPC Scientific 920712); also called human P2 peptide
T1 peptide: YSMKKTTMKIIPFNRLTIG


Target: T1, P2 peptide comprising SEQ ID NO: 31 …
Test: SPR (Biacore) single cycle, steady state fit; IgG from HEK supernatant captured, P2 peptide analyte
Experimental: FIG. 18 illustrates the procedure used for the single cycle kinetics analysis. The Biacore T200 […] instrument was used for single cycle kinetics analysis with the control software v2.0.1, and evaluation software V3.0. The anti-human capture chip was used with a running buffer consisting of HBS-P+ buffer (pH 7.4) containing 0.1% BSA at 25° C. a flow rate of 30 μl/min. Neat HEK supernatants were used as ligand and loaded to ˜1674 RU at 10 μl/min. P2 peptide comprising SEQ ID NO: 31 (CPC Scientific 920712, Lot #CS-02-00350) was the analyte for the analysis. […] Regeneration was performed with MgCl₂. Antibodies were diluted in running buffer to a final concentration of 20 μg/ml, based on concentrations assessed by Octet titre. At the start of each cycle, antibodies were loaded onto Fc2, Fc3 and Fc4 of the anti-human capture chip (GE Healthcare, Little Chalfont, UK). IgGs were captured at a flow rate of 10 μl/min to give an immobilization level (RL) of ˜ 1674 RU, the theoretical value to obtain an RMax of ˜50 RU. The surface was then allowed to stabilize. Single cycle kinetic data was obtained with P2 peptide as the analyte at a flow rate of 30 μl/min to minimize any potential mass transport limitations. […] The signal from the reference channel Fc1 (no antibody) was subtracted from that of Fc2, Fc3 and Fc4 to correct for differences in non-specific binding to a reference surface. […] The association phase for the five injections of increasing concentrations of P2 peptide was monitored for 20 seconds each time and a single dissociation phase was measured for 25 seconds following the last injection analyte. Regeneration of the anti-human capture surface was conducted using one injection of 3.8 M magnesium chloride.

Row | Kd [µM] | Relative KD [fold against VH0/VK0] | Binder
1 | 148 | 1.67 | VH4/VK3 (antibody, V domains shown) VH: QVQLVQSGAEVKKPGSSVKVSCKASGYTFTSYWIHWVRQAPGQGLEWIGLIDPSDSYTNYNQKFRGRVTITVDTSTSTAYMELSSLRSEDTAVYYCASSDPTGCWGQGTTVTVSS VL: DIVMTQSPLSLPVTPGEPASISCRSSKSLLHSSGITYLSWYLQKPGQSPQLLIYQMSNLASGVPDRFSSSGSGTDFTLKISRVEAEDVGVYYCAQNLELPLTFGQGTKLEIK
2 | 157 | 1.77 | VH4/VK4 (antibody, IgG1, V domains shown, Expressed as IgG1) VH: QVQLVQSGAEVKKPGSSVKVSCKASGYTFTSYWIHWVRQAPGQGLEWIGLIDPSDSYTNYNQKFRGRVTITVDTSTSTAYMELSSLRSEDTAVYYCASSDPTGCWGQGTTVTVSS VL: DIVMTQSPLSLPVTPGEPASISCRSSKSLLHSSGITYLSWYLQKPGQSPQLLIYQMSNLASGVPDRFSGSGSGTDFTLKISRVEAEDVGVYYCAQNLELPLTFGQGTKLEIK
3 | 173 | 1.95 | VH5/VK1 (antibody, IgG1, V domains shown, Expressed as IgG1) VH: QVQLVQSGAEVKKPGSSVKVSCKASGYTFTSYWIHWVRQAPGQGLEWIGLIDPSDSYTNYNQKFRGRVTITRDTSTSTAYMELSSLRSEDTAVYYCASSDPTGCWGQGTTVTVSS VL: DIVMTQAAFSNPITPGTPASISCRSSKSLLHSSGITYLSWYLQKPGQSPQLLIYQMSNLASGVPDRFSSSGSGTDFTLRISRVEAEDVGVYYCAQNLELPLTFGQGTKLEIK
4 | 279 | 3.15 | VH5/VK3 (antibody, IgG1, V domains shown, Expressed as IgG1) VH: QVQLVQSGAEVKKPGSSVKVSCKASGYTFTSYWIHWVRQAPGQGLEWIGLIDPSDSYTNYNQKFRGRVTITRDTSTSTAYMELSSLRSEDTAVYYCASSDPTGCWGQGTTVTVSS VL: DIVMTQSPLSLPVTPGEPASISCRSSKSLLHSSGITYLSWYLQKPGQSPQLLIYQMSNLASGVPDRFSSSGSGTDFTLKISRVEAEDVGVYYCAQNLELPLTFGQGTKLEIK
5 | 174 | 1.96 | VH6/VK1 (antibody, IgG1, V domains shown, Expressed as IgG1) VH: QVQLVQSGAEVKKPGSSVKVSCKASGYTFTSYWIHWVRQAPGQGLEWIGLIDPSDSYTNYNQKFQGRVTITRDTSTSTAYMELSSLRSEDTAVYYCASSDPTGCWGQGTTVTVSS VL: DIVMTQAAFSNPITPGTPASISCRSSKSLLHSSGITYLSWYLQKPGQSPQLLIYQMSNLASGVPDRFSSSGSGTDFTLRISRVEAEDVGVYYCAQNLELPLTFGQGTKLEIK
6 | 192 | 2.16 | VH6/VK3 (antibody, IgG1, V domains shown, Expressed as IgG1) VH: QVQLVQSGAEVKKPGSSVKVSCKASGYTFTSYWIHWVRQAPGQGLEWIGLIDPSDSYTNYNQKFQGRVTITRDTSTSTAYMELSSLRSEDTAVYYCASSDPTGCWGQGTTVTVSS VL: DIVMTQSPLSLPVTPGEPASISCRSSKSLLHSSGITYLSWYLQKPGQSPQLLIYQMSNLASGVPDRFSSSGSGTDFTLKISRVEAEDVGVYYCAQNLELPLTFGQGTKLEIK
7 | 277 | 3.12 | VH5/VK4 (antibody, IgG1, V domains shown, Expressed as IgG1) VH: QVQLVQSGAEVKKPGSSVKVSCKASGYTFTSYWIHWVRQAPGQGLEWIGLIDPSDSYTNYNQKFRGRVTITRDTSTSTAYMELSSLRSEDTAVYYCASSDPTGCWGQGTTVTVSS VL: DIVMTQSPLSLPVTPGEPASISCRSSKSLLHSSGITYLSWYLQKPGQSPQLLIYQMSNLASGVPDRFSGSGSGTDFTLKISRVEAEDVGVYYCAQNLELPLTFGQGTKLEIK

Continued, binder first:

Row | Binder | Kd [µM] | Relative KD [fold against VH0/VK0]
8 | VH1/VK4 (antibody, V domains shown) VH: QVQLVQSGAELKKPGTSVKLSCKASGYTFTSYWIHWVKQAPGQGLEWIGLIDPSDSYTNYNQKFRGRATLTVDTSTSTAYMQLSSLTSEDSAVYYCASSDPTGCWGQGTTVTVSS VL: DIVMTQSPLSLPVTPGEPASISCRSSKSLLHSSGITYLSWYLQKPGQSPQLLIYQMSNLASGVPDRFSGSGSGTDFTLKISRVEAEDVGVYYCAQNLELPLTFGQGTKLEIK | 176 | 1.98
9 | VH1/VK2 (antibody, V domains shown) VH: QVQLVQSGAELKKPGTSVKLSCKASGYTFTSYWIHWVKQAPGQGLEWIGLIDPSDSYTNYNQKFRGRATLTVDTSTSTAYMQLSSLTSEDSAVYYCASSDPTGCWGQGTTVTVSS VL: DIVMTQAAFSNPVTPGTPASISCRSSKSLLHSSGITYLSWYLQKPGQSPQLLIYQMSNLASGVPDRFSSSGSGTDFTLKISRVEAEDVGVYYCAQNLELPLTFGQGTKLEIK | 96.4 | 1.09
10 | VH1/VK3 (antibody, V domains shown) VH: QVQLVQSGAELKKPGTSVKLSCKASGYTFTSYWIHWVKQAPGQGLEWIGLIDPSDSYTNYNQKFRGRATLTVDTSTSTAYMQLSSLTSEDSAVYYCASSDPTGCWGQGTTVTVSS VL: DIVMTQSPLSLPVTPGEPASISCRSSKSLLHSSGITYLSWYLQKPGQSPQLLIYQMSNLASGVPDRFSSSGSGTDFTLKISRVEAEDVGVYYCAQNLELPLTFGQGTKLEIK | 200 | 2.25
11 | VH1/VK1 (antibody, V domains shown) VH: QVQLVQSGAELKKPGTSVKLSCKASGYTFTSYWIHWVKQAPGQGLEWIGLIDPSDSYTNYNQKFRGRATLTVDTSTSTAYMQLSSLTSEDSAVYYCASSDPTGCWGQGTTVTVSS VL: DIVMTQAAFSNPITPGTPASISCRSSKSLLHSSGITYLSWYLQKPGQSPQLLIYQMSNLASGVPDRFSSSGSGTDFTLRISRVEAEDVGVYYCAQNLELPLTFGQGTKLEIK | 104 | –

Target: T1, P2 peptide comprising SEQ ID NO: 31 …
Test: SPR (Biacore) single cycle, steady state affinity; IgG from HEK supernatant captured, γ377-395 peptide analyte

Row | Kd [µM] | Relative KD [fold against VH4/VK2] | Binder
12 | 72 | 1.53 | VH4 C102A/VK2 (antibody, IgG1, V domains shown, IgG1, tested from HEK supernatant) VH: QVQLVQSGAEVKKPGSSVKVSCKASGYTFTSYWIHWVRQAPGQGLEWIGLIDPSDSYTNYNQKFRGRVTITVDTSTSTAYMELSSLRSEDTAVYYCASSDPTGAWGQGTTVTVSS VL: DIVMTQAAFSNPVTPGTPASISCRSSKSLLHSSGITYLSWYLQKPGQSPQLLIYQMSNLASGVPDRFSSSGSGTDFTLKISRVEAEDVGVYYCAQNLELPLTFGQGTKLEIK
13 | 22 | 0.59 | VH4 C102G/VK2 (antibody, IgG1, V domains shown, IgG1, tested from HEK supernatant; also called VH4-102G) VH: QVQLVQSGAEVKKPGSSVKVSCKASGYTFTSYWIHWVRQAPGQGLEWIGLIDPSDSYTNYNQKFRGRVTITVDTSTSTAYMELSSLRSEDTAVYYCASSDPTGGWGQGTTVTVSS VL: DIVMTQAAFSNPVTPGTPASISCRSSKSLLHSSGITYLSWYLQKPGQSPQLLIYQMSNLASGVPDRFSSSGSGTDFTLKISRVEAEDVGVYYCAQNLELPLTFGQGTKLEIK
14 | 66 | 1.41 | VH4 C102S/VK2 (antibody, IgG1, V domains shown, IgG1, tested from HEK supernatant) VH: QVQLVQSGAEVKKPGSSVKVSCKASGYTFTSYWIHWVRQAPGQGLEWIGLIDPSDSYTNYNQKFRGRVTITVDTSTSTAYMELSSLRSEDTAVYYCASSDPTGSWGQGTTVTVSS VL: DIVMTQAAFSNPVTPGTPASISCRSSKSLLHSSGITYLSWYLQKPGQSPQLLIYQMSNLASGVPDRFSSSGSGTDFTLKISRVEAEDVGVYYCAQNLELPLTFGQGTKLEIK
15 | 93 | 1.98 | VH4 C102L/VK2 (antibody, IgG1, V domains shown, IgG1, tested from HEK supernatant; also called VH4-102L) VH: QVQLVQSGAEVKKPGSSVKVSCKASGYTFTSYWIHWVRQAPGQGLEWIGLIDPSDSYTNYNQKFRGRVTITVDTSTSTAYMELSSLRSEDTAVYYCASSDPTGLWGQGTTVTVSS VL: DIVMTQAAFSNPVTPGTPASISCRSSKSLLHSSGITYLSWYLQKPGQSPQLLIYQMSNLASGVPDRFSSSGSGTDFTLKISRVEAEDVGVYYCAQNLELPLTFGQGTKLEIK
